39 sequences from the supplement of paper PMC7877785 can be followed below.

A short description of this series: self-splicing fitness, log relative to wild type (ln ratio); higher = more splicing; Tetrahymena group I intron in knt gene, E. coli kanamycin selection, DiMSum; sequences stand for … in CUCUCU…GGAGGGAAAAGUUAUCAGGCAUGCACCUGGUAGCUAGUCUUUAAACCAAUAGAUUGCAUCGGUUUAAAAGGCAAGACCGUCAAAUUGCGGGAAAGGGGUCAACAGCCGUUCAGUACCAAGUCUCAGGGGAAACUUUGAGAUGGCCUUGCAAAGGGUAUGGUAAUAAGCUGACGGACAUGGUCCUAACCACGCAGCCAAGUCCUAAGUCAACAGAUCUUCUGUUGAUAUGGAUGCAGUUCACAGACUAAAUGUCGGUCGGGGAAGAUGUAUUCUUCUCAUAAGAUAUAGUCGGACCUCUCCUUAAUGGGAGCUAGCGGAUGAAGUGAUGCAACACUGGAGCCGCUGGGAACUAAUUUGUAUGCGAAAGUAUAUUGAUUAGUUUUGGAGUACUCGUGGUCG
The essentials: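 Pooled colonies went to amplicon sequencing on an Illumina HiSeq 2500 after six replicate transformations. The plates were LB agar with 100 μg/mL carbenicillin, 50 μM IPTG and 0.2% rhamnose, with or without 25 μg/mL kanamycin, incubated overnight at 37°C or 30°C. The E. coli BL21(DE3) library had all eight P1ex-region intron nucleotides randomised, the intron placed in the knt kanamycin-resistance gene on pET-22b(+). DiMSum fitness is the error-weighted combination of replicate fold changes, kanamycin against none, normalised to wild type.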

± gives the uncertainty stated by the source.

Take CAACAGCAAUAUUACGCUCC: the “self-splicing fitness (ln)” value is, setting by setting: (30 °C) -1.72 ± 0.098; (37 °C) -0.675 ± 0.14. For CCAAAGCAAUAUUACGGCGC, in that order: -3.65 ± 0.34 and -2.49 ± 0.29. For UACAAGCAAUAUUACGAGUC, the “self-splicing fitness (ln)” value is -3.06 ± 0.11 (30 °C) and -1.93 ± 0.15 (37 °C). As for UAACAGCAAUAUUACGUCGA, the “self-splicing fitness (ln)” value (30 °C) is -1.03 ± 0.12 and the “self-splicing fitness (ln)” value (37 °C) was 0.186 ± 0.098. The matching figures for GCUCAGCAAUAUUACGACUU: 0.064 ± 0.085 and -0.0421 ± 0.078. The matching figures for AAUGAGCAAUAUUACGGCAU: -1.55 ± 0.12 and -0.695 ± 0.12. For UUCCAGCAAUAUUACGAGGG, in that order: -3.28 ± 0.15 and -1.28 ± 0.15. In the case of CUAGAGCAAUAUUACGGGGC, the “self-splicing fitness (ln)” value by setting is: (30 °C) -3.9 ± 0.33; (37 °C) -2.31 ± 0.3. For ACCAAGCAAUAUUACGGUGG, in that order: -4.89 ± 0.21 and -2.53 ± 0.14. As to UCACAGCAAUAUUACGAAUC, under “37 °C”, the “self-splicing fitness (ln)” value is -1.26 ± 0.17. For the sequence UCGGAGCAAUAUUACGUUAG, the “self-splicing fitness (ln)” value (37 °C) is -2.12 ± 0.22. Take GGAUAGCAAUAUUACGUUGC: the “self-splicing fitness (ln)” value by setting is: (30 °C) -4.63 ± 0.36; (37 °C) -2.2 ± 0.28. For UCACAGCAAUAUUACGGGAG, the “self-splicing fitness (ln)” value runs as follows: (30 °C) -3.75 ± 0.17; (37 °C) -3.24 ± 0.22.

With ACUUAGCAAUAUUACGUCUG, the “self-splicing fitness (ln)” value was -1.82 ± 0.11 (30 °C) and -0.782 ± 0.15 (37 °C).

Regarding UAAUAGCAAUAUUACGAAGU, the “self-splicing fitness (ln)” value (37 °C) is -1.55 ± 0.47. Turning to GAUCAGCAAUAUUACGAGCC, the “self-splicing fitness (ln)” value runs as follows: (30 °C) -0.966 ± 0.074; (37 °C) -1.1 ± 0.093.

Take GAAUAGCAAUAUUACGGACU: the “self-splicing fitness (ln)” value is, setting by setting: (30 °C) -0.83 ± 0.07; (37 °C) -0.397 ± 0.087.

As to CUCAAGCAAUAUUACGUCAU, the “self-splicing fitness (ln)” value by setting is: (30 °C) -2.99 ± 0.14; (37 °C) -2.55 ± 0.14. With GUUCAGCAAUAUUACGGAUA, the “self-splicing fitness (ln)” value is -0.566 ± 0.13 (30 °C) and -0.413 ± 0.1 (37 °C). Take CCGUAGCAAUAUUACGGACA: for the setting “30 °C”, the “self-splicing fitness (ln)” value is -1.88 ± 0.35. In the case of GCGCAGCAAUAUUACGGUCU, the “self-splicing fitness (ln)” value is, setting by setting: (30 °C) -0.494 ± 0.075; (37 °C) 0.0551 ± 0.095.

UUCGAGCAAUAUUACGGAAA: the “self-splicing fitness (ln)” value reads like this: (30 °C) -1.51 ± 0.18; (37 °C) -2.84 ± 0.32. The matching figures for AACGAGCAAUAUUACGUGAU: -3.03 ± 0.18 and -0.913 ± 0.13. The matching figures for UAAAAGCAAUAUUACGGACU: -1.21 ± 0.072 and -0.711 ± 0.094. As for CGCCAGCAAUAUUACGCCCG, the “self-splicing fitness (ln)” value was -1.47 ± 0.14 (30 °C) and -0.959 ± 0.19 (37 °C).

As for AAUGAGCAAUAUUACGAGCU, the “self-splicing fitness (ln)” value by setting is: (30 °C) -3.15 ± 0.24; (37 °C) -3.57 ± 0.42. UAACAGCAAUAUUACGCUCC: the “self-splicing fitness (ln)” value is, setting by setting: (30 °C) -2.62 ± 0.32; (37 °C) -1.22 ± 0.3. Turning to GAGUAGCAAUAUUACGGUCU, the “self-splicing fitness (ln)” value by setting is: (30 °C) -1.24 ± 0.15; (37 °C) -1.22 ± 0.17.

For CUGCAGCAAUAUUACGUUAU, the “self-splicing fitness (ln)” value is -3.94 ± 0.17 (30 °C) and -3.07 ± 0.3 (37 °C). As to UUAAAGCAAUAUUACGGUCU, the “self-splicing fitness (ln)” value was -0.805 ± 0.074 (30 °C) and -0.3 ± 0.098 (37 °C). For AGCUAGCAAUAUUACGCUAC, in that order: -2.68 ± 0.48 and -2.77 ± 0.38. Turning to UGAUAGCAAUAUUACGACUA, the “self-splicing fitness (ln)” value (30 °C) was -0.635 ± 0.13 and the “self-splicing fitness (ln)” value (37 °C) came to 0.407 ± 0.17.

Take GCCGAGCAAUAUUACGUGUU: the “self-splicing fitness (ln)” value is, setting by setting: (30 °C) -2.22 ± 0.088; (37 °C) -1.66 ± 0.1. Consider UCUGAGCAAUAUUACGGGUG, for which the “self-splicing fitness (ln)” value (30 °C) is -3.83 ± 0.19 and the “self-splicing fitness (ln)” value (37 °C) was -2.42 ± 0.14. As for GUAGAGCAAUAUUACGGAUC, the “self-splicing fitness (ln)” value is -0.404 ± 0.1 (30 °C) and -0.0325 ± 0.14 (37 °C). For CCUAAGCAAUAUUACGAGGC, in that order: -3.32 ± 0.15 and -3.61 ± 0.22.

UUUCAGCAAUAUUACGACUU: the “self-splicing fitness (ln)” value is, setting by setting: (30 °C) -0.723 ± 0.077; (37 °C) -0.00938 ± 0.099.

With CACCAGCAAUAUUACGCGUA, the “self-splicing fitness (ln)” value is -0.717 ± 0.061 (30 °C) and -0.165 ± 0.066 (37 °C). On to AGAGAGCAAUAUUACGUCAU, for which the “self-splicing fitness (ln)” value (37 °C) is -1.01 ± 0.16.
